Test results from US20170306036A1 (ENGMAB, published 2017).
“And” between values parts separate entries of the source, which are not always exact repeats. Equal values may be shown once.

Legend:
[1] = target: T1, human BCMA stably expressed on HEK293T cells (huBCMA-HEK293T) (human, UniProt Q02223 1-184)
T1 sequence (looked up): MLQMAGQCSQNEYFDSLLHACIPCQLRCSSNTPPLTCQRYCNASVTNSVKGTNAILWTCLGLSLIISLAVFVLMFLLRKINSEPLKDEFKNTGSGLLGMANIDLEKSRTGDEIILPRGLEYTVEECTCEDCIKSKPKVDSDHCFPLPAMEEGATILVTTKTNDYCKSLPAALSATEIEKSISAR

[2] = target: T2, cynomolgus BCMA stably expressed on HEK293T cells (cynoBCMA-HEK293T) (cynomolgus, UniProt A0A2K5UD97 1-183)
T2 sequence (A0A2K5UD97 entry or part of it): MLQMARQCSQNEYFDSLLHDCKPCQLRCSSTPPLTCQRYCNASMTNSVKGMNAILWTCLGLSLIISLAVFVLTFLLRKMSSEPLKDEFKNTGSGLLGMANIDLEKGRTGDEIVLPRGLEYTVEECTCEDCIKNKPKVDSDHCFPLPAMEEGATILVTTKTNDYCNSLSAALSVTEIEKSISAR

[3] = target: T3, human BCMA on human myeloma cells (H929, L363, RPMI-8226, JJN-3, patient myeloma plasma cells) (human, UniProt Q02223 1-184)
T3 sequence (looked up): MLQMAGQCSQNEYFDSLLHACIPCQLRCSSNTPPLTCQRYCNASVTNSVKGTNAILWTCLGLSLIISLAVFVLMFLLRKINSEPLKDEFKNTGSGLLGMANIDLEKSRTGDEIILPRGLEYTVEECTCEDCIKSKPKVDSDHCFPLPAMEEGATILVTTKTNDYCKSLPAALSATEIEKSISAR

[4] = target: T3, human BCMA on human myeloma cells …; assay: cell-based or functional assay
[5] = target: T2, cynomolgus BCMA stably expressed on …; assay: cell-based or functional assay
[6] = target: T3, human BCMA on human myeloma cells …; assay: cell-based or functional assay; remark: listed apart in the source
[7] = target: T3, human BCMA on human myeloma cells …; assay: cell-based or functional assay; remark: listed apart in the source
[8] = target: T4, human CD3ε on Jurkat T cells (human, UniProt P07766 23-207); assay: flow cytometry on CD3-positive Jurkat T cells
T4 construct: whole, on cells; On cells it is part of the TCR/CD3 complex; also called CD3-positive Jurkat T cells
T4 sequence (P07766 23-207): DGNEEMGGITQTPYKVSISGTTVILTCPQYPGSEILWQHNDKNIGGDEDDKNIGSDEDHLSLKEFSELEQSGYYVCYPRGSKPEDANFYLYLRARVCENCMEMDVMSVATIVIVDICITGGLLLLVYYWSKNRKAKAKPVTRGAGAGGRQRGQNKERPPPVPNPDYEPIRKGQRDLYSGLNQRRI
Method: Jurkat T cells were cultured in RPMI supplemented with 10% heat-inactivated FCS. Briefly, cultured cells were harvested, counted and cell viability was evaluated using ViCell. Viable cells were then adjusted to 2×10⁶ cells per ml in FACS Stain Buffer (BD Biosciences) containing 0.1% BSA. 100 μl of this cell suspension were further aliquoted per well into a round-bottom 96-well plate. 30 μl of the anti-BCMA/anti-CD3 TCB antibodies or corresponding IgG control were added to the cell-containing wells to obtain final concentrations of 3 nM to 500 nM or 0.1 pM to 200 nM. Anti-BCMA/anti-CD3 TCB antibodies and control IgG were used at the same molarity. After incubation for 30 min at 4° C., cells were centrifuged (5 min, 350×g), washed twice with 150 μl/well BSA-containing FACS Stain Buffer (BD Biosciences), then cells were fixed using 100 ul BD Fixation buffer per well (#BD Biosciences, 554655) at 4° C. for 20 min, resuspended in 120 μl FACS buffer and analyzed using BD FACS Cantoll. Binding of the anti-BCMA/anti-CD3 TCB antibodies to T cells were evaluated and the median fluorescence intensity was determined gated on CD3-expressing Jurkat T cells and plotted in histograms or dot plots.

[9] = target: T5, recombinant human BCMA Fc(kih) (human, UniProt Q02223 4-53, biotinylated at the avi-tag at the C-terminus of the Fc knob chain ; Biotinylated in vivo (BirA) at the avi-tag at the C-terminus of the Fc knob chain. That part is not in the letters.); assay: SPR (Biacore T200, 25 C), IgG captured on anti-human Fab chip, BCMA Fc(kih) as analyte, 1:1 Langmuir fit
T5 construct: Monomeric Fc fusion made by knobs-into-holes; also called huBCMA Fc(kih); biotinylated human BCMA; not shown: Human IgG1 hinge-Fc knob chain with C-terminal avi-tag, and the unfused human IgG1 Fc hole chain
Method: The affinity of the interaction between anti-BCMA antibodies and recombinant human BCMA Fc(kih) was also determined. Anti-human Fab antibody (GE Healthcare) was directly coupled on a CMS chip at pH 5.0 using the standard amine coupling kit (Biacore, Freiburg/Germany). The immobilization level was about 6500 RU. […] Recombinant human BCMA Fc(kih) was passed at a […] concentration range (1.95 to 500 nM) with a flow of 30 μL/minutes through the flow cells over 120 seconds. The dissociation was monitored for 120 seconds. Bulk refractive index differences were corrected for by subtracting the response obtained on reference flow cell. […] Kinetic constants were derived using the Biacore T100 Evaluation Software (vAA, Biacore AB, Uppsala/Sweden), to fit rate equations for 1:1 Langmuir binding by numerical integration (Table 7).

[10] = target: T5, recombinant human BCMA Fc(kih); assay: SPR (ProteOn XPR36, 25 C), biotinylated BCMA Fc(kih) on NLC chip, Fab as analyte, monovalent affinity
Method: Buffer (PBST) was injected along the sixth channel to provide an “in-line” blank for referencing. Association rate constants (kon) and dissociation rate constants (koff) were calculated using a simple one-to-one Langmuir binding model in ProteOn Manager v3.1 software by simultaneously fitting the association and dissociation sensorgrams. The equilibrium dissociation constant (KD) was calculated as the ratio koff/kon.

[11] = target: T5, recombinant human BCMA Fc(kih); assay: competition ELISA: 500 or 1000 nM Fab on plate-bound biotinylated human BCMA; competitor murine APRIL 50 nM/1200 ng/mL; bound Fab read as OD450
Method: 500 nM or 1000 nM purified Fabs were added to saturate the coated human BCMA for 1 h at room temperature. […] The plate was washed 3 times with PBS and anti-FLAG-HRP secondary antibody (1:4000) was added for 1 h. Again, the plate was washed 3 times with PBS and developed by adding 100 ul/well BM Blue POD (Roche). The reaction was stopped by adding 50 ul/well 1M H₂SO₄ and the OD was read at 450 nm (reference at 650 nm) for a final read-out of OD₄₅₀₋₆₅₀.

B1: 83A10-TCBcv (anti-BCMA/anti-CD3 T cell bispecific antibody, 2+1 Fc-containing, with charge variant) (bispecific antibody, human IgG1, kappa, L234A L235A)
heavy 1: not shown
heavy 2: not shown
light 1: EVQLLESGGGLVQPGGSLRLSCAASGFTFSTYAMNWVRQAPGKGLEWVSRIRSKYNNYATYYADSVKGRFTISRDDSKNTLYLQMNSLRAEDTAVYYCVRHGNFGNSYVSWFAYWGQGTLVTVSSASVAAPSVFIFPPSDEQLKSGTASVVCLLNNFYPREAKVQWKVDNALQSGNSQESVTEQDSKDSTYSLSSTLTLSKADYEKHKVYACEVTHQGLSSPVTKSFNRGEC
light 2: not shown
notes: also called 83A10-TCVcv
Q: Which results are given for B1?
A: EC50 [1]: 15.6 nM; EC50 [2]: 7.8 nM; EC50 [3]: ~17.4 nM and ~2.51 µg/mL; EC50 of Granzyme B secretion, PBMC + RPMI-8226 cells (CBA) [4]: 0.34 nM; EC50 of IL-10 secretion, PBMC + RPMI-8226 cells (CBA) [4]: 0.3 nM; EC50 of TNF-α secretion, PBMC + RPMI-8226 cells (CBA) [4]: 0.52 nM; EC50 of lysis of cynoBCMA-HEK cells (LDH release), cyno PBMCs donor 1 [5]: 0.0035 nM; EC50 of lysis of cynoBCMA-HEK cells (LDH release), cyno PBMCs donor 2 [5]: 0.0027 nM; mean EC50 of lysis of cynoBCMA-HEK cells (LDH release) [5]: 0.0031 nM; EC50 of redirected T-cell killing of RPMI-8226 cells (LDH release), Donor 2 [6]: 0.621 nM; EC50 of redirected T-cell killing of RPMI-8226 cells (LDH release), Donor 3 [6]: 0.229 nM; EC50 of redirected T-cell killing of RPMI-8226 cells (LDH release), Donor 4 [6]: 0.035 nM; EC50 of redirected T-cell killing of RPMI-8226 cells (LDH release), Donor 5 [6]: 0.0649 nM; EC50 for reduction of viable (annexin-V negative) myeloma plasma cells, bone marrow aspirate Patient 001 [7]: 1 nM; EC50 for reduction of viable (annexin-V negative) myeloma plasma cells, bone marrow aspirate Patient 002 [7]: 8.24 nM; EC50 for reduction of viable (annexin-V negative) myeloma plasma cells, bone marrow aspirate Patient 003 [7]: 8.02 nM; binding result [8]: binds

B2: 17A5-TCBcv (anti-BCMA/anti-CD3 T cell bispecific antibody, 2+1 Fc-containing, with charge variant) (bispecific antibody, human IgG1, kappa, L234A L235A)
heavy 1: not shown
heavy 2: not shown
light 1: EVQLLESGGGLVQPGGSLRLSCAASGFTFSTYAMNWVRQAPGKGLEWVSRIRSKYNNYATYYADSVKGRFTISRDDSKNTLYLQMNSLRAEDTAVYYCVRHGNFGNSYVSWFAYWGQGTLVTVSSASVAAPSVFIFPPSDEQLKSGTASVVCLLNNFYPREAKVQWKVDNALQSGNSQESVTEQDSKDSTYSLSSTLTLSKADYEKHKVYACEVTHQGLSSPVTKSFNRGEC
light 2: not shown
Q: Does B2 bind [8]?
A: Result: binds

B3: 13A4 anti-BCMA IgG (antibody, V domains shown)
VH: EVQLVQSGAEVKKPGESLKISCKGSGYSFTSYWIGWVRQMPGKGLEWMGIIYPGDSDTRYSPSFQGQVTISADKSISTAYLQWSSLKASDTAMYYCARNGYLGDYWGQGTLVTVSS
VL: not shown
notes: also called anti-BCMA antibody clone 13A4; MAB 13A4
Q: Which results are given for B3?
A: Kd [9]: 5.1 nM; koff [9]: 0.00036 s⁻¹; kon [9]: 72000 M⁻¹ s⁻¹

B4: anti-BCMA Fab clone 13A4 (Fab, V domains shown)
VH: EVQLVQSGAEVKKPGESLKISCKGSGYSFTSYWIGWVRQMPGKGLEWMGIIYPGDSDTRYSPSFQGQVTISADKSISTAYLQWSSLKASDTAMYYCARNGYLGDYWGQGTLVTVSS
VL: not shown
notes: Phage-display Fab (Vk2D_28/VH5_1), bacterially expressed
Q: With B4 as the binder, how does the Kd [10] read?
A: Its Kd is 1.8 nM.

Q: And the “reduction in OD (450 nm) in absence vs. presence of murine Δ-APRIL” value [11]?
A: Its value is 13.1%.
